Target: T1, MHC class II‐associated invariant chain γ (CD74), endogenous in MDA‐MB‐231 cells (human (endogenous in MDA‐MB‐231), UniProt P04233 1-296)
T1 sequence (looked up): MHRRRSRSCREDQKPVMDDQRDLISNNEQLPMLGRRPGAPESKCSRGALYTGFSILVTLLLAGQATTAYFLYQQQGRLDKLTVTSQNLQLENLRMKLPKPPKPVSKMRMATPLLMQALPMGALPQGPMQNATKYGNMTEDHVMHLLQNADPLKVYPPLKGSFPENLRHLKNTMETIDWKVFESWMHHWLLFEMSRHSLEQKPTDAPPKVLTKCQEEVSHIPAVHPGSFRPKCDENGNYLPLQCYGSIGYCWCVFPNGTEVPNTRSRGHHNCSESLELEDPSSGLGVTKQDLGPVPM
Experiment: cell-based or functional assay

B1: his6‐tagged human recombinant TIMP‐1 protein (rTIMP‐1) (natural protein)
chain: not shown
modifications: extensively glycosylated
  P‐Akt (Ser473)/Akt ratio in MDA‐MB‐231 cells after 10 and 30 min of rTIMP‐1, normalised to 0 min (western blot): 2.3 P‐Akt/Akt ratio normalised to the 0 min sample

Source: PMC10399710, “The invariant chain CD74 protein is a cell surface binding partner of TIMP‐1 in breast cancer cells” (Molecular Oncology, 2023)
